B1: PPEF2 (parent)
chain: DHSGFISLDEFRQTWKLFSSHMNI

Variants of: B1
Assay: protein stability index of a GFP-peptide fusion (GPS, HEK-293T) (PSI 1-6); higher = more stable
Conditions: c terminus: a fixed tail appended
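Also: lentivirally expressed fusions sorted by FACS into six bins by GFP to DsRed ratio, PSI derived from sequencing read proportions per bin multiplied by bin number.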

Variant | protein stability index
DHSGFISLDEFRQTWKLFSSHMPI [N23P] | 1.84
DHSGFISLDEFRQTWKLFSSHMHI [N23H] | 2.16
DHSGFISLDEFRQTWKLFSSHMGI [N23G] | 1.73
DHSGFISLDEFRQTWKLFSSHMSI [N23S] | 2.26
DHSGFISLDEFRQTWKLFSSHMQI [N23Q] | 1.86
DHSGFISLDEFRQTWKLFSSHMEI [N23E] | 2.82
DHSGFISGDEFRQTWKLFSSHMNI [L8G] | 2.13
DHSGFISYDEFRQTWKLFSSHMNI [L8Y] | 1.87
DHSGFISNDEFRQTWKLFSSHMNI [L8N] | 1.62
DHSGFISTDEFRQTWKLFSSHMNI [L8T] | 2.09
DHSGFISKDEFRQTWKLFSSHMNI [L8K] | 1.97
DHSGFISADEFRQTWKLFSSHMNI [L8A] | 1.62
DHSGFISRDEFRQTWKLFSSHMNI [L8R] | 1.93
THSGFISLDEFRQTWKLFSSHMNI [D1T] | 2.84
LHSGFISLDEFRQTWKLFSSHMNI [D1L] | 3.93
FHSGFISLDEFRQTWKLFSSHMNI [D1F] | 2.27
CHSGFISLDEFRQTWKLFSSHMNI [D1C] | 2.13
EHSGFISLDEFRQTWKLFSSHMNI [D1E] | 1.4
SHSGFISLDEFRQTWKLFSSHMNI [D1S] | 4.12
WHSGFISLDEFRQTWKLFSSHMNI [D1W] | 2.08
MHSGFISLDEFRQTWKLFSSHMNI [D1M] | 1.94
HHSGFISLDEFRQTWKLFSSHMNI [D1H] | 1.38
DHSGFMSLDEFRQTWKLFSSHMNI [I6M] | 2.32
DHSGFQSLDEFRQTWKLFSSHMNI [I6Q] | 1.91

Variant | protein stability index
DHSGFHSLDEFRQTWKLFSSHMNI [I6H] | 1.71
DHSGFRSLDEFRQTWKLFSSHMNI [I6R] | 2.08
DHSGFGSLDEFRQTWKLFSSHMNI [I6G] | 1.28
DHSGFCSLDEFRQTWKLFSSHMNI [I6C] | 1.86
DHSGFVSLDEFRQTWKLFSSHMNI [I6V] | 1.41
DHSGFLSLDEFRQTWKLFSSHMNI [I6L] | 1.65
DHSGFTSLDEFRQTWKLFSSHMNI [I6T] | 1.71
DHSGFSSLDEFRQTWKLFSSHMNI [I6S] | 1.75
DHSGFESLDEFRQTWKLFSSHMNI [I6E] | 1.66
DHSGFPSLDEFRQTWKLFSSHMNI [I6P] | 2.02
DHSGFISLDMFRQTWKLFSSHMNI [E10M] | 2.26
DHSGFISLDKFRQTWKLFSSHMNI [E10K] | 1.79
DHSGFISLDLFRQTWKLFSSHMNI [E10L] | 2.49
DHSGFISLDAFRQTWKLFSSHMNI [E10A] | 2.48
DHSGFISLDTFRQTWKLFSSHMNI [E10T] | 2.37
DHSGFISLDDFRQTWKLFSSHMNI [E10D] | 1.71
DHSGFISLDRFRQTWKLFSSHMNI [E10R] | 1.6
DHSGFISLDGFRQTWKLFSSHMNI [E10G] | 1.26
DHSGFISLDEFRQTWKLFTSHMNI [S19T] | 2.55
DHSGFISLDEFRQTWKLFPSHMNI [S19P] | 1.82
DHSGFISLDEFRQTWKLFDSHMNI [S19D] | 1.56
DHSGFISLDEFRQTWKLFYSHMNI [S19Y] | 1.7
DHSGFISLDEFRQTWKLFWSHMNI [S19W] | 1.87
DHSGFISLDEFRQTWKLFASHMNI [S19A] | 1.56

Variant | protein stability index
DHSGFISLDEFRQTWKLFFSHMNI [S19F] | 2.32
DHSGFISLDEFRQTWKLFISHMNI [S19I] | 2.22
DISGFISLDEFRQTWKLFSSHMNI [H2I] | 1.91
DDSGFISLDEFRQTWKLFSSHMNI [H2D] | 1.86
DVSGFISLDEFRQTWKLFSSHMNI [H2V] | 1.45
DYSGFISLDEFRQTWKLFSSHMNI [H2Y] | 2.11
DNSGFISLDEFRQTWKLFSSHMNI [H2N] | 1.14
DRSGFISLDEFRQTWKLFSSHMNI [H2R] | 1.34
DHSGFISLDEFRQLWKLFSSHMNI [T14L] | 1.66
DHSGFISLDEFRQDWKLFSSHMNI [T14D] | 1.71
DHSGFISLDEFRQIWKLFSSHMNI [T14I] | 1.83
DHSGFISLDEFRQWWKLFSSHMNI [T14W] | 1.39
DHSGFISLDEFRQNWKLFSSHMNI [T14N] | 1.91
DHSGFISLDEFRQMWKLFSSHMNI [T14M] | 1.85
DHSGFISLDEFRQKWKLFSSHMNI [T14K] | 1.93
DHSGFISLDEFRQGWKLFSSHMNI [T14G] | 1.69
DHSGFISLDEFRQHWKLFSSHMNI [T14H] | 2
DHHGFISLDEFRQTWKLFSSHMNI [S3H] | 1.69
DHIGFISLDEFRQTWKLFSSHMNI [S3I] | 1.84
DHGGFISLDEFRQTWKLFSSHMNI [S3G] | 1.97
DHPGFISLDEFRQTWKLFSSHMNI [S3P] | 1.91
DHTGFISLDEFRQTWKLFSSHMNI [S3T] | 2.62
DHWGFISLDEFRQTWKLFSSHMNI [S3W] | 1.8
DHRGFISLDEFRQTWKLFSSHMNI [S3R] | 2.58

Variant | protein stability index
DHFGFISLDEFRQTWKLFSSHMNI [S3F] | 2.23
DHSGFISLDEFCQTWKLFSSHMNI [R12C] | 1.74
DHSGFISLDEFHQTWKLFSSHMNI [R12H] | 1.86
DHSGFISLDEFPQTWKLFSSHMNI [R12P] | 1.61
DHSGFISLDEFFQTWKLFSSHMNI [R12F] | 3.28
DHSGFISLDEFLQTWKLFSSHMNI [R12L] | 1.53
DHSGFISLDEFYQTWKLFSSHMNI [R12Y] | 2.69
DHSGFISLDEFMQTWKLFSSHMNI [R12M] | 2.38
DHSGFISLDEFRQTWKLFSTHMNI [S20T] | 1.85
DHSGFISLDEFRQTWKLFSVHMNI [S20V] | 3
DHSGFISLDEFRQTWKLFSFHMNI [S20F] | 2.44
DHSGFISLDEFRQTWKLFSNHMNI [S20N] | 1.71
DHSGFISLDEFRQTWKLFSEHMNI [S20E] | 2.43
DHSGFISLDEFRQTWKLFSPHMNI [S20P] | 1.96
DHSGGISLDEFRQTWKLFSSHMNI [F5G] | 2.5
DHSGPISLDEFRQTWKLFSSHMNI [F5P] | 2.12
DHSGHISLDEFRQTWKLFSSHMNI [F5H] | 1.77
DHSGKISLDEFRQTWKLFSSHMNI [F5K] | 1.52
DHSGDISLDEFRQTWKLFSSHMNI [F5D] | 1.41
DHSGVISLDEFRQTWKLFSSHMNI [F5V] | 1.53
DHSGLISLDEFRQTWKLFSSHMNI [F5L] | 1.92
DHSGFISLDEFRQTRKLFSSHMNI [W15R] | 1.62

From the supplement of paper PMC10567573
